Earlier results in article PMC7088015.
Like-named read-outs stand apart in the source and are kept apart here.

Legend:
Conditions in all cases: free dipeptide in solution (not further stated)
Cterm = tested on: Cterm
Nterm [1] = tested on: Nterm
[2] = tested on: Cterm (position 1, -----H-----); test: not stated
[3] = tested on: His2 (position 1, -----H-----); test: not stated
Nterm [4] = test: not stated

Substance	pKa (Cterm)	pKa (Nterm [1])	pKa [2]	pKa [3]	pKa (Nterm [4])
Anserine (beta-alanyl-1-methyl-L-histidine) (natural dipeptide of skeletal muscle of birds, fish and cattle (first identified in goose muscle); source of the titrated material not stated)	2.64	9.49	–	–	–
Carnosine (beta-alanyl-L-histidine) (natural dipeptide of vertebrate skeletal muscle (discovered in cattle, Bos taurus); source of the titrated material not stated)	–	–	2.77	6.83	9.66
